{
  "source": "the RNAGym collection of RNA variant scans (doi:10.7554/elife.80360)",
  "parents": {"B1": {"name": "Hairpin Ribozyme (parent)", "chain": "GUCCUCUUUCACGUGCGCGUGAAAGAGAGAAGUGAACCAGAGAAACACACGUUGUGGUAUAUUACCUGGUA"}},
  "data": [
    {"variants_of": "B1", "assay": "self-cleavage, relative activity (ratio to wild type); higher = more cleavage; co-transcriptional", "values": [
      {"variant": "G27U A35G", "self-cleavage": 0.228},
      {"variant": "G34U G54U", "self-cleavage": 1.26},
      {"variant": "A11C A26C", "self-cleavage": 0.41},
      {"variant": "G32C U60G", "self-cleavage": 0.112},
      {"variant": "U5C A30C", "self-cleavage": 0.154},
      {"variant": "U2A A45G", "self-cleavage": 0.0349},
      {"variant": "G56C A71C", "self-cleavage": 0.315},
      {"variant": "A23G A35G", "self-cleavage": 0.939},
      {"variant": "U8C G25A", "self-cleavage": 0.197},
      {"variant": "A11U A45G", "self-cleavage": 0},
      {"variant": "C46A G69U", "self-cleavage": 0.171},
      {"variant": "C4A U52A", "self-cleavage": 0.206},
      {"variant": "G21A U58C", "self-cleavage": 0.916},
      {"variant": "A36C G57U", "self-cleavage": 0.264},
      {"variant": "C12A C38G", "self-cleavage": 0.187},
      {"variant": "C12A A35G", "self-cleavage": 0.914},
      {"variant": "G32C A44C", "self-cleavage": 0.108},
      {"variant": "U33A U60G", "self-cleavage": 0.0384},
      {"variant": "U20A C65U", "self-cleavage": 0.388},
      {"variant": "U53A A61U", "self-cleavage": 0.248},
      {"variant": "C12U A64C", "self-cleavage": 0.148},
      {"variant": "C3G U62C", "self-cleavage": 0.0668},
      {"variant": "A30U A36C", "self-cleavage": 0.0422},
      {"variant": "G34C G68A", "self-cleavage": 0.723},
      {"variant": "G25U U60G", "self-cleavage": 0.288},
      {"variant": "A41U C65G", "self-cleavage": 0.563},
      {"variant": "C4U U14G", "self-cleavage": 0.418},
      {"variant": "G56C G68A", "self-cleavage": 0.153},
      {"variant": "G19A A22G", "self-cleavage": 0.714},
      {"variant": "U58A A64C", "self-cleavage": 0.143},
      {"variant": "C3G A36C", "self-cleavage": 0.165},
      {"variant": "U8G G29A", "self-cleavage": 0.154},
      {"variant": "C3G U55C", "self-cleavage": 0.118},
      {"variant": "C18G A36C", "self-cleavage": 0.473},
      {"variant": "G42U A64U", "self-cleavage": 0.186},
      {"variant": "U14A G69A", "self-cleavage": 0.219},
      {"variant": "G21A A30U", "self-cleavage": 0.144},
      {"variant": "U8G A39G", "self-cleavage": 0.263},
      {"variant": "G68C G69U", "self-cleavage": 0.17},
      {"variant": "A49G U52C", "self-cleavage": 0.502},
      {"variant": "G19U A28G", "self-cleavage": 1},
      {"variant": "G51C U70C", "self-cleavage": 1.01},
      {"variant": "G25U A30U", "self-cleavage": 0.0827},
      {"variant": "A24C G32A", "self-cleavage": 0.161},
      {"variant": "C4A G51A", "self-cleavage": 0.232},
      {"variant": "U5C U63C", "self-cleavage": 0.286},
      {"variant": "G21C U70A", "self-cleavage": 0.779},
      {"variant": "C4G A36C", "self-cleavage": 0.103},
      {"variant": "A39G A44G", "self-cleavage": 0.129},
      {"variant": "A26G A61C", "self-cleavage": 0.173},
      {"variant": "G21C A22G", "self-cleavage": 0.786},
      {"variant": "G29C G68A", "self-cleavage": 0.0962},
      {"variant": "A45G A47C", "self-cleavage": 0.228},
      {"variant": "A28U A61C", "self-cleavage": 0.18},
      {"variant": "A23U A28U", "self-cleavage": 0.674},
      {"variant": "U33A A39G", "self-cleavage": 0.122},
      {"variant": "A22G A28C", "self-cleavage": 0.689},
      {"variant": "G34C C65A", "self-cleavage": 1.45},
      {"variant": "G19U G42A", "self-cleavage": 0.175},
      {"variant": "G13U A31C", "self-cleavage": 0.133},
      {"variant": "A30G A41U", "self-cleavage": 0.244},
      {"variant": "C18A A31U", "self-cleavage": 0.0438},
      {"variant": "U53A C66G", "self-cleavage": 0.247},
      {"variant": "U2G G51C", "self-cleavage": 0.359},
      {"variant": "U8A U33G", "self-cleavage": 0.0531},
      {"variant": "C12G A61U", "self-cleavage": 0.217},
      {"variant": "G42A G54A", "self-cleavage": 0.153},
      {"variant": "C10U A24U", "self-cleavage": 0.778},
      {"variant": "U20C A30G", "self-cleavage": 0.112},
      {"variant": "A22G A36C", "self-cleavage": 0.515},
      {"variant": "C48U U70A", "self-cleavage": 0.152},
      {"variant": "C6G C37G", "self-cleavage": 0.142},
      {"variant": "U62A U63G", "self-cleavage": 0.112},
      {"variant": "A11G A35C", "self-cleavage": 0.996},
      {"variant": "U7A U52C", "self-cleavage": 0.953},
      {"variant": "G34A C50G", "self-cleavage": 0.481},
      {"variant": "G19A U62A", "self-cleavage": 0.0978},
      {"variant": "A30G C37U", "self-cleavage": 0.136},
      {"variant": "C4G C50A", "self-cleavage": 0.147},
      {"variant": "U20C U70A", "self-cleavage": 1.08},
      {"variant": "A23C G56C", "self-cleavage": 0.191},
      {"variant": "C50U A64G", "self-cleavage": 0.216},
      {"variant": "A28C U53C", "self-cleavage": 0.598},
      {"variant": "G25C A59U", "self-cleavage": 0.134},
      {"variant": "G25C A59C", "self-cleavage": 0.232},
      {"variant": "G29C G32C", "self-cleavage": 0.128},
      {"variant": "G19C C38G", "self-cleavage": 0.142},
      {"variant": "U7A A31G", "self-cleavage": 0.77},
      {"variant": "A49G A61U", "self-cleavage": 0.217},
      {"variant": "G29C U58A", "self-cleavage": 0.213},
      {"variant": "U53A U67A", "self-cleavage": 0.109},
      {"variant": "A35G G42A", "self-cleavage": 0.174},
      {"variant": "G21U A71U", "self-cleavage": 0.754},
      {"variant": "A24C", "self-cleavage": 0.894},
      {"variant": "U20C U63G", "self-cleavage": 0.169},
      {"variant": "G17C A35C", "self-cleavage": 1.04},
      {"variant": "G15C A30G", "self-cleavage": 0.198},
      {"variant": "G13C C18G", "self-cleavage": 0.807},
      {"variant": "C16G G56A", "self-cleavage": 0.073},
      {"variant": "C4A U7A", "self-cleavage": 0.175},
      {"variant": "A23U G56C", "self-cleavage": 0.174},
      {"variant": "A41C U52C", "self-cleavage": 0.79},
      {"variant": "U8G A43C", "self-cleavage": 0.152},
      {"variant": "U33A A47C", "self-cleavage": 0.0723},
      {"variant": "U8A G57U", "self-cleavage": 0.267},
      {"variant": "U5A A36C", "self-cleavage": 0.168},
      {"variant": "A31G C46G", "self-cleavage": 0.0961},
      {"variant": "G42A G51C", "self-cleavage": 0.21},
      {"variant": "A44U G69C", "self-cleavage": 0.159},
      {"variant": "G51A A64G", "self-cleavage": 0.666},
      {"variant": "A31C U60A", "self-cleavage": 0.157},
      {"variant": "U55C A61G", "self-cleavage": 0.181},
      {"variant": "G1C A11U", "self-cleavage": 0.179},
      {"variant": "U2C A49G", "self-cleavage": 0.0598},
      {"variant": "G15A A26G", "self-cleavage": 0.835},
      {"variant": "U60C C66G", "self-cleavage": 0.0763},
      {"variant": "G54C U58C", "self-cleavage": 0.478},
      {"variant": "U60G G68A", "self-cleavage": 0.201},
      {"variant": "C12A G42C", "self-cleavage": 0.272},
      {"variant": "A23C C46U", "self-cleavage": 0.0785},
      {"variant": "U2G G21U", "self-cleavage": 0.236},
      {"variant": "U20G U33C", "self-cleavage": 0.109},
      {"variant": "U33G G51A", "self-cleavage": 0.118},
      {"variant": "A22C A24C", "self-cleavage": 0.233},
      {"variant": "A31C U67A", "self-cleavage": 0.2},
      {"variant": "G17A U62G", "self-cleavage": 0.0926},
      {"variant": "A43C C66A", "self-cleavage": 0.0928},
      {"variant": "U20G C48U", "self-cleavage": 0.228},
      {"variant": "U58G G69U", "self-cleavage": 0.113},
      {"variant": "A47U", "self-cleavage": 0.154},
      {"variant": "C6A A30G", "self-cleavage": 0.131},
      {"variant": "C46U G57A", "self-cleavage": 0.186},
      {"variant": "G1A A59U", "self-cleavage": 0.286},
      {"variant": "C4A G42U", "self-cleavage": 0.115},
      {"variant": "C6G U20A", "self-cleavage": 0.242},
      {"variant": "A61U A71C", "self-cleavage": 0.468},
      {"variant": "G13C G56U", "self-cleavage": 0.202},
      {"variant": "G15A U60G", "self-cleavage": 0.639},
      {"variant": "C12U G51U", "self-cleavage": 0.872},
      {"variant": "G54A G56C", "self-cleavage": 0.0439},
      {"variant": "C46A C50G", "self-cleavage": 0.159},
      {"variant": "G54U U70C", "self-cleavage": 0.569},
      {"variant": "A31C G42U", "self-cleavage": 0.092},
      {"variant": "C38A U70C", "self-cleavage": 0.115},
      {"variant": "G1C G17A", "self-cleavage": 0.232},
      {"variant": "U52C A61U", "self-cleavage": 0.226},
      {"variant": "A43C A47G", "self-cleavage": 0.0478},
      {"variant": "G21A G69U", "self-cleavage": 0.197},
      {"variant": "G13U U63C", "self-cleavage": 0.181},
      {"variant": "C16G C65A", "self-cleavage": 0.976},
      {"variant": "A23G A61G", "self-cleavage": 0.136},
      {"variant": "G17A C37U", "self-cleavage": 0.463},
      {"variant": "A45U A59U", "self-cleavage": 0.154},
      {"variant": "C50G A64U", "self-cleavage": 0.19},
      {"variant": "C12G C66U", "self-cleavage": 0.369},
      {"variant": "U2G U20A", "self-cleavage": 0.225},
      {"variant": "C37G C48U", "self-cleavage": 0.144},
      {"variant": "A23C G27U", "self-cleavage": 0.253},
      {"variant": "G17A C50A", "self-cleavage": 0.21},
      {"variant": "U7C G68C", "self-cleavage": 0.302},
      {"variant": "A11G U52A", "self-cleavage": 0.857},
      {"variant": "U33A C65A", "self-cleavage": 0.225},
      {"variant": "C4U U9C", "self-cleavage": 0.22},
      {"variant": "A31U A43G", "self-cleavage": 0.134},
      {"variant": "A44G U55C", "self-cleavage": 0.0374},
      {"variant": "U7G A31C", "self-cleavage": 0.11},
      {"variant": "G1U U33A", "self-cleavage": 0.123}
    ]}
  ]
}
